In assay [1] the target is T1, human IL-4 (recombinant E. coli-expressed) (human, UniProt P05112 25-153).
T1 sequence (looked up): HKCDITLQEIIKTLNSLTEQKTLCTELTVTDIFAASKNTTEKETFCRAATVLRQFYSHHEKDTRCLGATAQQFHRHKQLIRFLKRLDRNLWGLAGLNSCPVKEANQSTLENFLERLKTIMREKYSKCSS
Nature of the assay: cell-based or functional assay.

Assay [2] addresses T1, human IL-4 (recombinant E. …). Nature of the assay: Biacore T100 SPR, Protein A capture (CM5), human IL4 analyte, 1:1 fit. The method, then: Purified mAbs and mAbdAb constructs were tested in a BIAcore assay to determine whether the mutation of position 89 had any effect on the binding of the dAb to IL-4.
Protein A was immobilised on a CM5 chip by primary amine coupling; this surface was used as a capture surface for the antibody molecules to be tested. […] Regeneration of the […] surface was achieved using 50 mM NaOH. The assay was run at 25° C. using HBS-EP as running buffer. The data was fitted to 1:1 model inherent to the Biacore T100 analysis software.
Background: SPR reads the build-up and loss of mass on a sensor chip optically.

For assay [3] the target is unchanged. The description is as above. The method, then:
(§1) Protein A was immobilised on a CM5 chip by primary amine coupling; this surface was used as a capture surface for the antibody molecules to be tested.
(§2) All binding curves were double referenced with a 0 nM injection (i.e. buffer alone). Regeneration of the Protein A surface was with 50 mM NaOH. The assay was run at 25° C. using HBS-EP as running buffer. The data was fitted to 1:1 model inherent to the Biacore T100 analysis software.
This is another data set of the same source.

For assay [4], the target named is T2, human IL-13 (recombinant E. coli-expressed) (human, UniProt P35225 35-146).
T2 construct: also called hIL-13
The experiment in a line: Biacore T100 SPR, Protein A capture (CM5), human IL13 analyte, 1:1 fit. The method, then: Protein A was immobilised on a CM5 chip by primary amine coupling; this surface was used as a capture surface for the antibody molecules to be tested. […] All binding curves were double referenced with a 0 nM injection (i.e. buffer alone).
Regeneration of the Protein A surface was with 50 mM NaOH. The assay was run at 25° C. using HBS-EP as running buffer. The data was fitted to 1:1 model inherent to the Biacore T100 analysis software.

Assay [5] concerns the target T1, human IL-4 (recombinant E. …). Nature of the assay: Biacore T100 SPR, Protein A capture (CM5), 1:1 fit; paragraph 260 calls Table 20 IL13, its footnote and values point to IL4. As to the method: (§3) Protein A was immobilised on a CM5 chip by primary amine coupling; this surface was used as a capture surface for the antibody molecules to be tested. […] Regeneration the Protein A surface was with 50 mM NaOH. The assay was run at 25° C. using HBS-EP as running buffer. The data was fitted to 1:1 model inherent to the Biacore T100 analysis software.

Assay [6] shares this target. Nature of the assay: direct binding ELISA, plate coated with 5 ug/ml human IL-4, anti-human kappa light chain-HRP detection, absorbance at 490 nm. As to the method: 96-well high binding plates were coated with 5 μg/ml human IL-4 (made at GSK) in NaHCO₃ and stored overnight at 4° C. The plates were washed twice with Tris-Buffered Saline with 0.05% of Tween-20 (TBST). 100 μL of blocking solution (1% BSA in TBST buffer) was added in each well and the plates were incubated for at least one hour at room temperature. The mAbdAbs were successively diluted across the plates in blocking solution. After one hour incubation, the plates were washed three times. Goat anti-human kappa light chain specific peroxidase conjugated antibody (Sigma A7164) was diluted in blocking solution to 1 μg/mL and 50 μL was added to each well. The plates were incubated for one hour. After another three washing steps, 50 μl of OPD (o-phenylenediamine dihydrochloride) SigmaFast substrate solution was added to each well and the reaction was stopped after about 5 minutes by addition of 25 μL of 3M sulphuric acid. Absorbance was read at 490 nm using the VersaMax Tunable Microplate Reader (Molecular Devices) using a basic endpoint protocol.
Background: ELISA stands for enzyme-linked immunosorbent assay.

Assay [7] deals with T2, human IL-13 (recombinant E. …). The experiment in a line: cell-based or functional assay.
The target is the same in assay [8]. The experiment in a line: Biacore T100 SPR, Protein A capture (CM5), 1:1 fit; paragraph 260 calls Table 21 IL4, the values match IL13 (tables seem swapped). The method, then:
as §3

Assay [9] addresses T1, human IL-4 (recombinant E. …). Nature of the assay: Biacore T100 SPR, Protein A capture (C1 chip), human IL4 analyte, 1:1 fit; on-rate beyond the sensitivity of Biacore (footnote). The method, then: Protein A was immobilised on a Cl chip by primary amine coupling; this surface was used as a capture surface for the antibody molecules to be tested. […] Regeneration the Protein A surface was with 100 mM Phosphoric acid. The assay was run at 25° C. using HBS-EP as running buffer. The data was fitted to 1:1 model inherent to the Biacore T100 analysis software.

For assay [10] the target is unchanged. The experiment in a line: Biacore T100 SPR, Protein A capture (CM5), human IL4 analyte, 1:1 fit; footnote: rates not measurable. The method, then: as §1, §2
Assay [11] has the same target. Nature of the assay: Biacore T100 SPR, Protein A capture (CM5), human IL4 analyte, 1:1 fit; footnote: impossible on-rate. As to the method:
as §1, §2

The target in assay [12] is T2, human IL-13 (recombinant E. …). Nature of the assay: cell-based or functional assay. The source holds these as a separate data set.
For assay [13] the target is unchanged. The experiment in a line: Biacore T100 SPR, purified mAb captured on anti-human IgG, IL13 analyte, 1:1 fit. From the text: (§4) Table 1 details the overall affinities (equilibrium dissociation constant KD) for the selected constructs from the ProteOn screen and the T100 run
For assay [14] the target is unchanged. The description is as above.
Description: as §4
The source holds these as a separate data set.

Assay [15] shares this target. Nature of the assay: Biacore T100 SPR, mAb (supernatant) captured on anti-human IgG, IL13 analyte, 1:1 fit.
Description: as §4

Assay [16] shares this target. Nature of the assay: ProteOn XPR36 SPR, mAb (supernatant) captured on anti-human IgG, IL13 analyte, 1:1 fit. As to the method: The initial screen of CDRH3 mutants was carried out on the ProteOn XPR36 (Biorad). […] 3M MgCl₂ was used to regenerate the capture surface, removing the bound CDRH3 mutant antibodies ready for another cycle of capture and analyte injection. The data was fitted to the 1:1 model using the software inherent to the machine.

Residue numbers refer to the chain shown, from its start.

This is an account of results in US20120082682A1 (GlaxoSmithKline, published 2012).

T2 sequence (P35225 other isoform, or with tags, fused parts or gaps limits assumed): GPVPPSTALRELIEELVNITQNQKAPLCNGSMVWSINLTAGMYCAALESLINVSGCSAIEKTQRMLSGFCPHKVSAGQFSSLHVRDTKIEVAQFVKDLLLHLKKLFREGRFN

B1: BPC1085 (bispecific antibody, human IgG1, kappa)
heavy: not shown
light: DIVMTQSPLSLPVTPGEPASISCRSSQNIVHINGNTYLEWYLQKPGQSPRLLIYKISDRFSGVPDRFSGSGSGTDFTLKISRVEADDVGIYYCFQGSHVPWTFGQGTKLEIKRTVAAPSVFIFPPSDEQLKSGTASVVCLLNNFYPREAKVQWKVDNALQSGNSQESVTEQDSKDSTYSLSSTLTLSKADYEKHKVYACEVTHQGLSSPVTKSFNRGEC
notes: also called 829H-GS(TVAAPSGS)2-154 (89Q)
The term Kd denotes the equilibrium constant for the complex coming apart. As usually defined, the EC50 (read off the curve) is the midpoint of the concentration-response curve. In the case of B1, the “Mean ND50 value (nM), TF-1 cell proliferation bioassay” value in assay [1] stood at 9.21 nM. For the same molecule, the Kd in [2] stood at 0.052 nM; in assay [3] it was 0.078 nM; in assay [4], 0.073 nM; in assay [5], 0.048 nM. Moreover, in [6], the “EC50 (read off the curve)” value is around 4 nM.

B2: BPC1625 (bispecific antibody, human IgG1, kappa)
heavy: not shown
light: B1 light
Take B2: in assay [7], the “ND50 human IL-13, TF-1 cell proliferation bioassay” value was 0.542 nM.

B3: BPC1626 (bispecific antibody, human IgG1, kappa)
heavy: not shown
light: B1 light
On to B3, for which the “ND50 human IL-13, TF-1 cell proliferation bioassay” value in assay [7] was found to be 0.681 nM.

B4: BPC1624 (bispecific antibody, human IgG1, kappa)
heavy: not shown
light: B1 light
For B4, in [7], the “ND50 human IL-13, TF-1 cell proliferation bioassay” value was determined as 0.553 nM.

B5: BPC1086 (bispecific antibody, human IgG1, kappa)
heavy: not shown
light: B1 light
notes: also called 829H-GS(TVAAPSGS)3-154 (89Q)
By koff is commonly meant a measure of how fast the partners let go of each other. The term kon denotes a measure of how fast the partners come together. Turning to B5, in assay [8], the Kd came out at 0.051 nM, the off-rate (koff) came to 6.57e-05 s⁻¹ and the kon is 1.28e+06 M⁻¹ s⁻¹. Besides, in assay [6], the “EC50 (read off the curve)” value is around 4 nM.

B6: BPC1627 (bispecific antibody, human IgG1, kappa)
heavy: not shown
light: B1 light
Regarding B6, in [7], the “ND50 human IL-13, TF-1 cell proliferation bioassay” value amounted to 0.615 nM.

B7: BPC2230 (bispecific antibody, human IgG1, kappa)
heavy: not shown
light: B1 light
notes: mAbdAb with the original CDRH3 and the unmutated DOM9-155-154 dAb
Take B7: the Kd in assay [9] turned out to be 0.01 nM.

B8: BPC2231 (bispecific antibody, human IgG1, kappa)
heavy: not shown
light: B1 light
notes: as for B7
On to B8, for which the Kd in assay [5] amounted to 0.002 nM; in assay [9], 0.006 nM. The concentration giving a half-maximal response (EC50 (read off the curve)) in assay [6] is around 3 nM.

B9: BPC1112 (bispecific antibody, human IgG1, kappa)
heavy: not shown
light: B1 light
notes: mAbdAb; dAb Kabat 89 K; also called 829H-(TVAAPS)2GS-154 (89K)
On to B9, for which, in assay [10], the Kd stood at 29 nM and the koff was 3.31 s⁻¹.

B10: BPC1115 (bispecific antibody, human IgG1, kappa)
heavy: not shown
light: B1 light
notes: mAbdAb; dAb Kabat 89 Y; also called 829H-(TVAAPS)2GS-154 (89Y)
Regarding B10, in assay [11], the Kd was determined as 2.29 nM, the off-rate constant (koff) came out at 0.329 s⁻¹ and the association rate constant (kon) is 1.44e+08 M⁻¹ s⁻¹.

B11: DOM9-155-154 (other)
VL: DIQMTQSPSSLSASVGDRVTITCRASRPISDWLHWYQQKPGKAPKLLIAWASSLQGGVPSRFSGSGSGTDFTLTISSLQPEDFATYYCLQEGWGPPTFGQGTKVEIKR
For the molecule B11, the “Mean ND50 value (nM), TF-1 cell proliferation bioassay” value in assay [1] came out at 0.98 nM.

B12: A1Y100B AlaL1 (antibody, human IgG1, kappa, V domains shown)
VH: QVQLVQSGAEVKKPGSSVKVSCKASGFYIKDTYMHWVRQAPGQGLEWMGTIDPANGNTKYVPKFQGRVTITADESTSTAYMELSSLRSEDTAVYYCARSIYDDYHADDYYAMDYWGQGTLVTVSS
VL: DIVMTQSPLSLPVTPGEPASISCRSSQNIVHINGNTYLEWYLQKPGQSPRLLIYKISDRFSGVPDRFSGSGSGTDFTLKISRVEADDVGIYYCFQGSHVPWTFGQGTKLEIKR
notes: CDRH3 variant of A1L1
With B12, in assay [12], the “ND50 (nM), TF-1 cell proliferation bioassay” value (from here on “ND50 (nM)”) is 0.92 nM. The Kd in assay [13] turned out to be 0.031 nM; in [14] it was 0.032 nM; in [15], 0.083 nM; in [16] it was 0.075 nM. In addition, the off-rate constant (koff) in assay [13] is 3e-05 s⁻¹; in assay [14], 2.58e-05 s⁻¹. Further, the association rate constant (kon) in assay [13] worked out at 960000 M⁻¹ s⁻¹; in assay [14], 810000 M⁻¹ s⁻¹.

B13: A1Y100B TrpL1 (antibody, human IgG1, kappa, V domains shown)
VH: B12 VH with A106W
VL: B12 VL
notes: CDRH3 variant of A1L1
As for B13, the “ND50 (nM)” value in assay [12] stood at 1.25 nM. In addition, the equilibrium dissociation constant (Kd) was determined as 0.063 nM in [13], 0.053 nM in assay [14], 0.095 nM in assay [15] and 0.068 nM in assay [16]. The koff in assay [13] was determined as 0.000163 s⁻¹; in [14], 0.000125 s⁻¹. Also, the results for the kon in assay [13] and in assay [14] were 2.57e+06 M⁻¹ s⁻¹ and 2.38e+06 M⁻¹ s⁻¹, respectively.

B14: A1Y100B IleL1 (antibody, human IgG1, kappa, V domains shown)
VH: B12 VH with A106I
VL: B12 VL
notes: CDRH3 variant of A1L1
For B14, the “ND50 (nM)” value in assay [12] worked out at 1.1 nM. For the same molecule, the dissociation constant Kd in assay [13] turned out to be 0.049 nM; in assay [14], 0.043 nM; in [15] it was 0.073 nM; in [16], 0.075 nM. Also, the off-rate (koff) in assay [13] stood at 5.58e-05 s⁻¹; in assay [14], 4.21e-05 s⁻¹. Besides, the kon in assay [13] was found to be 1.15e+06 M⁻¹ s⁻¹; in assay [14], 989000 M⁻¹ s⁻¹.
